Test results published in PMC8746622, “Purification, Characterization, and Structural Studies of a Sulfatase from Pedobacter yulinensis” (Molecules, 2021).

B1: PyuS (Pedobacter yulinensis) (protein)
chain: QGSRKPNIIFIMADDLGWGELGSYGNTFNETPNLDRLSAQGMRFTQAYAAAPVCSPTRASIMTGQYPARVGITDFLPEDEKTDRWLDPTKYVTLNEALSASGYHTGIVGKWHLDTDFKLNKGGPKAHGFNEVIGTESEYIADGDYFFPYSKIASFDKGTANEYLTDRQCAEANAFITRNREKPFFLYLSLYSVHTRLEAPVQLVEKYKQKFDQKYGTGKAEQFFGANNVRHESAQRDNPWLAAMLESIDTGVGGIMKTLRETGLAENTIIVFFSDNGGAGKAGNNAHLRAGKTWLYEGGIREPLIVSWPGKIKGNTVNDNPVTSLDFYPTFLAAAGGKPTGGRLDGHNLMPLLRGGRASGRPLFWHYPSETGKWVNRMSSAVREGNYKLLEFYNNPRLELYDLQNDPSESHNLATDRPAETARLKKLLEDWKKEVNAEAPHLARKEKKKP
notes: signal peptide (native residues 2-24) removed; C-terminal GSHHHHHH tag kept; expressed in E. coli with M. tuberculosis FGE (active-site Cys converted to formylglycine, FGly55); 459 residues, 51,320 Da; SEC monomer

Tests used:
[1] = molecular target: Pedobacter yulinensis sulfatase (PyuS), recombinant, without the putative N-terminal signal peptide, C-terminal His6-tag (Pedobacter yulinensis); experiment: SEC; HiLoad 16/600 Superdex 200 pg, 10 mM Tris, 150 mM sodium chloride, pH 8.0, 1.2 mL/min, 4 °C; molecular weights of the two peaks from SEC MW standards; monomer and dimer
purified protein = substrate: Cc1cc(=O)oc2cc(OS(=O)(=O)O)ccc12; experiment: purified protein; format: biochemical, Pedobacter yulinensis; details: 25 mM Bis-Tris pH 6.5, 1.0 mM CaCl2, room temperature, SEC monomer

Molecule	percent of soluble protein as homodimer [1] [%]	stoichiometry N [1]	Km (purified protein) [µM]	kcat (purified protein) [s⁻¹]
Pedobacter yulinensis sulfatase (PyuS), recombinant, without the putative N-terminal signal peptide, C-terminal His6-tag (enzyme)	10	2	–	–
B1	–	–	1890	0.00983
